What all share (experiment): GC-MS product quantification, Michaelis-Menten fit
Format in all cases: biochemical, Salvia miltiorrhiza
What all share (details): Mg2+ (5 mM MgCl2), 25 mM HEPES pH 7.0, 5 mM DTT, 30°C, 5 min, FPP 2.3-184.6 μM

Substrate in data set [1]: CC(C)=CCC/C(C)=C/CC/C(C)=C/CO[P@@](=O)(O)OP(=O)(O)O
An excerpt: GC-MS product quantification, Michaelis-Menten fit on […]1

Substrate in data set [2]: CC(C)=CCC/C(C)=C/CC/C(C)=C/CO[P@@](=O)(O)OP(=O)(O)O
An excerpt: GC-MS product quantification, Michaelis-Menten fit on […]2
The source holds these as a separate data set.

Substrate in data set [3]: CC(C)=CCC/C(C)=C/CC/C(C)=C/CO[P@@](=O)(O)OP(=O)(O)O
An excerpt:
GC-MS product quantification, Michaelis-Menten fit on […]3
This is another data set of the same source.

In article PMC5404360, “Identification of a Novel (-)-5-Epieremophilene Synthase from Salvia miltiorrhiza via Transcriptome Mining” (Frontiers in Plant Science, 2017) one finds Km, kcat and kcat/Km data, which are given here for three proteins.

As a reminder, the Km is the concentration of substrate that gives half-maximal velocity. A word on the kcat: it is the maximal rate divided by the concentration of active sites. As usually defined, the kcat/Km is the second-order rate constant that governs catalysis at low substrate concentration.

B1: SmSTPS1 (Salvia miltiorrhiza) (protein)
chain: MATTQAQIQRPIANFSPSLWGDQFIKNDPGAKAAEKHCKAVEELKKEVMNMITAAGSNLVEAMNLIDTLERLGISYHFEKEIDQKLKHFFNLNKDYSDESYDLYTVSLHFRLFRQHGHRISSDIFGRWIDESGKFKEGLKTDGKGLLSLYEASYLRTRGETILDDALEFATATLNSIAPHLESPLSKQVVHALIQPLHYGNPRIEAHNFISIYEENQDKNEFLLRFAKLDYNLLQMLHKEELNEVSRWWKELDLVSKLPYARDRVVECFFWAMGVYHEPQYSRARIMLTKTITMTSIIDDTYDAYGVIEELDIFTEAIERWNMEEMKKLPEYIQPFYKALLELYEQFEEELAEEGRSYAAHYAIESLKELVRSYHVEAKWFIQGYLPPFEEYLKNALITCTYCYHTTTSLLGVESAVEEDFEWLANKPKMLVAGLLICRVIDDIATYEVEKERGQSATGIESYMRDNNATIEEAVAKFFEIATDAWKDINEECLMPSPYSRDVLMRILNLERIIDVTYKGNEDGYTQPEKVLKPHIIALFVDPIKM
notes: full-length ORF, 546 aa, in pET-32a (N-terminal thioredoxin/His tag fusion, kept), E. coli Rosetta (DE3), Ni-NTA purified
For the protein B1, in data set [1], the Km amounted to 25.35 ± 1.88 µM, the kcat turned out to be 2.09 ± 0.05 s⁻¹ and the kcat/Km was 82700 ± 40600 M⁻¹ s⁻¹.

B2: SmSTPS2 (Salvia miltiorrhiza) (protein)
chain: MATTQVEIQRPIANFSPSLWGDQFIKNDSGAKAAEKHCKAVEELKKEVMNMITAGGSNLVEAMNLIDTLERLGISYHFEKEIDQKLNHFFNLNTDYSDEFYDLYTVSLHFRLFRQHGHRISSDIFGRWIDESGKFKEGLKTDGKGLLSLYEASYLRTRGETILDDALEFATATLNSIAPHLESPLSKQVVHALIQPLHYGNPRIEAHNFISIYEENQDKNEFLLKFAKLDYNLLQMLHKEELHEVSRWWKELDLVSKLPYARDRVVECFFWAMGVYHEPQYSRARIMLTKTITMTSIIDDTYDAYGVIEELDIFTEAIERWNIEEMDRLPEYVKPFYKALLELYEQFEEELAEEGRSYAAHYAIESLKELVRSYHVEAKWFIQGYLPPFEEYLKNALITCTYCYHTTTSLLGVESAVEEDFQWLAKKPKMLVAGLLICRVIDDIATYEVEKERGQSATGIESYMRDNNATIEEAVAKFFEIATDAWKDINEECLMPSPYSRDVLMRILNLERIIDVTYKGNEDGYTQPEKVLKPHIIALFVDPIKM
notes: as for B1
Turning to B2, in data set [2], the Km came to 24.20 ± 0.84 µM, the kcat was found to be 2.07 ± 0.13 s⁻¹ and the kcat/Km turned out to be 85600 ± 38200 M⁻¹ s⁻¹.

B3: SmSTPS3 (Salvia miltiorrhiza) (protein)
chain: MATTQVEIQRPIANFSPSLWGDQFIKNDSGAKAAEKHCKAVEELKKEVMNMITAAESNLVEAMNLIDTLERLGISYHFEKEIDQKLNHFFSLNTDYSDESYDLYTVSLHFRLFRQHGHRISSDIFGRWIDESGKFKEGLKTDGKGLLSLYEASYLRTRGETILDDALEFATATLNSIAPHLESPLSKQVVHALIQPLHYGNPRIEAHNFISIYEENQDKNEFLLKFAKLDYNLLQMLHKEELHEVSRWWKELDLVSKLPYARDRVVECFFWAMGVYHEPQYSRARIMLTKTITMTSIIDDTYDAYGVIEELDIFTEAIERWNIEEMDRLPEYVKPFYKALLELYEQFEEELAEEGRSYAAHYAIESLKELVRSYHVEAKWFIQGYLPPFEEYLKNALITCTYCYHTTTSLLGVESAVEEDFQWLAKKPKMLVAGLLICRVIDDIATYEVEKERGQSATGIESYMRDNNATIEEAVAKFFEIATDAWKDINEECLMPSPYSRDVLMRILNLERIIDVTYKGNEDGYTQPEKVLKPHIIALFVDPIKM
notes: as for B1
For the protein B3, in data set [3], the Km turned out to be 10.44 ± 1.07 µM, the kcat turned out to be 1.53 ± 0.02 s⁻¹ and the catalytic efficiency (kcat/Km) came to 148000 ± 13200 M⁻¹ s⁻¹.
